FAM = fluorescein group

Usually Kd stands for a measure of binding affinity in units of concentration.

What all share (experiment): fluorescence polarisation; direct binding: 10 nM FAM-labeled peptide, receptor serially diluted; 25°C; 20 mM NaPO4, 50 mM NaCl, 1 mM EDTA, 0.001% Triton X, pH 7.8; single-site binding model
What all share (conditions): both partners purified
Background: Polarisation of emitted light reports the rotation of a fluorescent probe.

One assay concerns the target T1, Bcl-2 (human, UniProt P10415 1-239).
T1 construct: human Bcl-2; The c-Myc tag is told for the SPOT arrays; also called c-Myc-tagged receptor; prosurvival protein

Another assay has as its target T2, Bcl-w (human, UniProt Q92843 1-193).
T2 construct: human Bcl-w; The c-Myc tag is told for the SPOT arrays; also called c-Myc-tagged receptor; prosurvival protein
T2 sequence (looked up): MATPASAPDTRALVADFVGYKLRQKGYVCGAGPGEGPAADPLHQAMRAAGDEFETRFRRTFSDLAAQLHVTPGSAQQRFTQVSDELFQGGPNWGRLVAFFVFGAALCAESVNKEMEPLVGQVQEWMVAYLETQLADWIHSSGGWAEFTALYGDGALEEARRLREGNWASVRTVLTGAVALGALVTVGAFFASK

Another assay deals with T3, Bfl-1 (human, UniProt Q16548 1-175).
T3 construct: human Bfl-1; The c-Myc tag is told for the SPOT arrays; also called c-Myc-tagged receptor; prosurvival protein
T3 sequence (looked up): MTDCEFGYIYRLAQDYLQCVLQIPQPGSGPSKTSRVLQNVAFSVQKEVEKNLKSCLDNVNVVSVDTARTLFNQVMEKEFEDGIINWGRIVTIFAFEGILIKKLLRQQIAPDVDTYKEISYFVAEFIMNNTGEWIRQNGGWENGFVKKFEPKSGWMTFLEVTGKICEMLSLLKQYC

Another assay concerns the target T4, Mcl-1 (human, UniProt Q07820 1-350).
T4 construct: human Mcl-1; The c-Myc tag is told for the SPOT arrays; also called c-Myc-tagged receptor; prosurvival protein

T1 sequence (P10415 whole entry): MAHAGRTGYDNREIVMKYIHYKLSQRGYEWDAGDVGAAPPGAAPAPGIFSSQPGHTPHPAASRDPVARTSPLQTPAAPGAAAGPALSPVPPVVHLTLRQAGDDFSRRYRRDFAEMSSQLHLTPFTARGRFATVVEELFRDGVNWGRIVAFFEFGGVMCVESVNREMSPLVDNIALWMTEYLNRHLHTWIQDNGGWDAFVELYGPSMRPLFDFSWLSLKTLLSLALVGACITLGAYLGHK
T4 sequence (Q07820 whole entry): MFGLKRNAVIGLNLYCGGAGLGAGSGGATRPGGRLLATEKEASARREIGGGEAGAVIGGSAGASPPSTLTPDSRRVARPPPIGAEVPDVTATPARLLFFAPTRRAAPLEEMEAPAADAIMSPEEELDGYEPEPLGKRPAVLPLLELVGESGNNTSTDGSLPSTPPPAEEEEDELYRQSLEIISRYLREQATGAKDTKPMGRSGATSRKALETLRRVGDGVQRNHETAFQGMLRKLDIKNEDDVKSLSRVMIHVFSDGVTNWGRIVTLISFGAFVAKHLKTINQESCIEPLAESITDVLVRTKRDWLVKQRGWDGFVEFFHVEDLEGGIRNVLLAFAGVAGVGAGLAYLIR

As for {FAM}-PFKAWGKFGGAFCRYADEMKEIQERQ-NH2 [PURB BH3-like peptide], binding with Bcl-2 was characterised by a dissociation constant (Kd) of 40 nM.

For the molecule {FAM}-IIQMIVELLKRVGDQWEEEQSLA-NH2 [c6orf222 BH3-like peptide], the Kd with Bcl-2, with Bcl-w, with Bfl-1 and in the assay with Mcl-1 was below 30 nM throughout.

The values above are taken from paper PMC4072508 (PLoS Computational Biology, 2014).
